Biological target: T1, p17 (the fourth subunit of xPol ε complex) (Xenopus, UniProt Q6WSQ3 1-147)
T1 construct: p17 subunit of Xenopus DNA polymerase epsilon, 147 amino acids; also called xPol ε p17; source: sf21 insect cells, baculovirus, co-expressed, in crude extract
T1 sequence (looked up): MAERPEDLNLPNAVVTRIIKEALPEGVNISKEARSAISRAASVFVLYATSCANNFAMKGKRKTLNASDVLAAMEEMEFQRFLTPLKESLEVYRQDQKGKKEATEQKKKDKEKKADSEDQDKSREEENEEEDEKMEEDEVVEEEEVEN
Assay: not stated; data not shown; p12 and p17 in insect cells

B1: p12 (the third subunit of xPol ε complex) (natural protein, Xenopus, UniProt Q0EAE6 1-116, looked up)
chain: MAAEVAAPESLEGSGSQEDAGPSSPPAAHPAPCPSKQARLPLSRIKALMKADPDLSLASQESVFVISKATELFIETIAKDAYLYAQQGKRKTLQRKDLDNAIDAIDEFAFLEGTLD
notes: p12 subunit of Xenopus DNA polymerase epsilon, 116 amino acids; also called xPol ε p12; source: sf21 insect cells, baculovirus, co-expressed, in crude extract
stoichiometry N: 1
